Assay [1] has as its target AMOT PPxY2 P239L mutant peptide (UniProt Q4VCS5). Description: fluorescence polarisation; 1 nM Oregon Green-labelled PPxY peptide, 2-fold dilutions of WW domain; 20 mM Tris pH 7.5, 150 mM NaCl, 0.5 mM TCEP; 26 °C (legend: 25 °C).
In assay [2] the target is AMOT PPxY1 A112K mutant peptide (UniProt Q4VCS5). Described as above.
Assay [3] has as its target AMOT PPxY1 peptide (residues 100-114), Oregon Green 488-labelled (UniProt Q4VCS5). The assay is described as above.
Assay [4] shares this target. Described as above. The source holds these as a separate data set.
The target of assay [5] is AMOT PPxY1 E104K/E105K mutant peptide (UniProt Q4VCS5). The description is as above.
The target of a further assay is AMOT(1-300)-ALEXA488 (UniProt Q4VCS5). Put plainly: fluorescence polarisation. (In general: Fluorescence polarisation rises when a labelled molecule tumbles more slowly, as on binding a larger partner.)
Assay [6] has as its target AMOT PPxY3 (Homo sapiens) (UniProt Q4VCS5). The note with it: cited from earlier work.

Read-outs that look alike come from different tables or passages of the source.

Chain of AMOT(1-300)-ALEXA488 (Q4VCS5 1-300): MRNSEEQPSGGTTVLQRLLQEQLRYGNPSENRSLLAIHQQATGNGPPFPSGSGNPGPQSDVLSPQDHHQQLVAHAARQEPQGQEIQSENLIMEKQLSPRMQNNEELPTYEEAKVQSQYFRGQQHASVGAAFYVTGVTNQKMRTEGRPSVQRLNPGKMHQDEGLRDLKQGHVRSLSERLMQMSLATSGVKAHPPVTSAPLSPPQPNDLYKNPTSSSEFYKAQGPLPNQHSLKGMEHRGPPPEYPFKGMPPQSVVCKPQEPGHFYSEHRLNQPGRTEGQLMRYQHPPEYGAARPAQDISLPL
Chain of KIBRA WW1-WW2 (Q8IX03 6-86): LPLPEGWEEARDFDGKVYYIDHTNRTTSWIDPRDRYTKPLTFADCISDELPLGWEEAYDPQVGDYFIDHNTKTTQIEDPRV

The substance NEDD4L WW3 domain (domain or fragment) returned a fold reduction of binding against wt PPxY2 in assay [1] of 2.8 fold. For the same substance, the Kd in assay [2] came out at 40 µM; in assay [3] it was 4.5 µM; in assay [4], 4.8 µM; in assay [5], 31 µM.
“full-length recombinant NEDD4L (isoform 2) (enzyme)” registered a Kd with AMOT(1-300)-ALEXA488 of 2.7 µM.
On to KIBRA WW1-WW2 (from UniProt Q8IX03), for which the Kd in assay [6] was 0.096 µM.

By Kd is commonly meant a measure of binding affinity in units of concentration.

These data come from article PMC8368996, “Interactions between AMOT PPxY motifs and NEDD4L WW domains function in HIV-1 release” (The Journal of Biological Chemistry, 2021).
